By IC50 is commonly meant the concentration that inhibits the measured activity by half. What is called koff is the rate constant with which the complex falls apart. A lower koff goes with a long-lived complex. As usually defined, the t½ is the time in which the quantity being followed falls by half.

The values that follow come from patent publication US20260069689A1 (Regeneron, published 2026).

Test [1] deals with SARS-CoV-2 RBD.mmh (Spike amino acids Arg319-Phe541 with C-terminal myc-myc-6-Histidine tag) (SARS-CoV-2, UniProt P0DTC2 319-541).
Test [2] has as its target T1, SARS-COV-2 RBD-MMH (SARS-COV-2 RBD extracellular domain with C-terminal myc-myc-hexahistidine tag) (SARS-CoV-2).
Test [3] deals with T1, SARS-COV-2 RBD-MMH (SARS-COV-2 RBD …). Nature of the test: SPR 37C, mAb captured, pH 7.4 vs pH 6.0.
For test [4], the target named is SARS-COV-2 RBD-MMH (SARS-CoV-2). The test can be described thus: SPR 37C.
The target is the same in test [5]. The test can be described thus: SPR 37C, run with dissociation at pH 5.0.
The target is the same in test [6]. Nature of the test: SPR 37C, run with dissociation at pH 7.4.

B1: mAb15163 (antibody, V domains shown)
VH: EVQLVETGGGLIQPGESLRLSCAASGFIVSTNYMNWVRQAPGKGLEWVSVIYRGGSTYYADSVKGRFTISRDNSKNTLFLQMNSLRAEDTAVYYCARGHEDFDYDTPASGAFDIWGQGTMVTVSS
VL: QSALTQPPSASGSPGQSVTISCTGTSSDVGGHNYVSWYQQHPGKAPKVMIYEVSKRPSGVPDRFSGSKSGNTASLTVSGLQAEDEADYYCSSYAGSNKFVFGTGTKVTVLG
As to B1, half-maximal inhibition in test [1] (IC50) required 217 pM. For the same molecule, in test [2], the koff worked out at 0.00104 s⁻¹, the “t½ at pH 6.0” value is 11.1 min and the “t½ at pH 7.4” value was found to be 23.4 min. In test [3], the “t½ Ratio of pH 7.4 to pH 6.0” value is 2.1.

B2: mAb15158 (antibody, V domains shown)
VH: EVQLVESGGGLVQPGGSLRLSCAASGFSFSSNWMSWVRQAPGKGLEWVGNINQDGSEKYYVDSVEGRFTISRDNAKKSLYLQMNSLRAEDTAVYYCARDLGVLWFGDFVDWGQGALVTVSS
VL: DIQMTQSPSSLSASVGDRVTITCRASQAISNSLAWYQQKPGKAPKLLLYAASTLESGVPSRFSGSGSGTDYTLTISSLQPEDFATYYCLQYYGSPRTFGQGTKVEIKR
In the case of B2, in test [4], the “t½ Ratio of pH 7.4 to pH 5.0” value is 0.3. In test [5], the “RBD.mmh Bound at pH 7.4 (RU)” value is 122 RU, the koff was determined as 9.7e-05 s⁻¹ and the t½ is 119 min. Also, in test [6], the “RBD.mmh Bound at pH 7.4 (RU)” value was 111 RU and the koff was 0.00031 s⁻¹.

B3: mAb15162 (antibody, V domains shown)
VH: EVQLVETGGGLIQPGGSLRLSCAASEFIVSRNYMSWVRQAPGKGLEWVSLIYSGGSTYYADSVKGRFTISRDNSKNILYLQMNSLRAEDTAVYYCARDRGGISDYWGQGTLVTVSS
VL: DIQMTQSPSSLSASVGDRVTITCQASQDINKYLNWFQQKPGKAPKLLIYDASNLETGVPSRFSGSGSGTDFTFTISSLQPEDIATYYCQQYDNLPRTFGQGTKLEIKR
B3: the “t½ Ratio of pH 7.4 to pH 5.0” value in test [4] was 1.8. In test [5], the “RBD.mmh Bound at pH 7.4 (RU)” value turned out to be 131 RU, the off-rate (koff) is 0.0054 s⁻¹ and the t½ was 2.1 min. In test [6], the “RBD.mmh Bound at pH 7.4 (RU)” value amounted to 116 RU and the koff came out at 0.003 s⁻¹.

B4: mAb15170 (antibody, V domains shown)
VH: EVQLVESGGGLVQPGGSLRLSCAATGITVSSNYMSWVRQAPGKGLEWVSLIYSGGSTFYADSVKGRFTISRHNSKNTLYLQMSSLRAEDTAVYYCARDLVDFGMDVWGQGTTVTVSS
VL: DIQLTQSPSSLSASVGDRVTITCRASQGISNYLAWYQQKPGKAPKLLIYAASTLQSGVPSRFSGSGSGTDFTLTISSLQPEDFGTYYCQQLNSDSPTFGQGTKVEIKR
With B4, the IC50 in test [1] turned out to be 102 pM. Moreover, in test [2], the off-rate (koff) turned out to be 8e-05 s⁻¹, the “t½ at pH 6.0” value came out at 144 min and the “t½ at pH 7.4” value came to 108 min. For the same molecule, the “t½ Ratio of pH 7.4 to pH 6.0” value in test [3] came to 0.7.

B5: mAb15159 (antibody, V domains shown)
VH: EVQLVESGGGLVQPGGSLRLSCAASGITVSSNYMTWVRQAPGKGLEWVSLIYSGGSTFYADSVRGRFTISRDNSKNTLYLQMNSLRAEDTAVYYCARDLVVYGMDVWGQGTTVTVSS
VL: DIQLTQSPSSLSASVGDRVTITCRASQGISSYLAWYQQKPGKAPKLLIYAASTLQSGVPSRFSGSGSGTDFTLTISSLQPEDFATYYCQHLNSDPHTFGQGTKLEIKR
B5: in test [4], the “t½ Ratio of pH 7.4 to pH 5.0” value turned out to be 1.9. In test [5], the “RBD.mmh Bound at pH 7.4 (RU)” value turned out to be 45.5 RU, the koff is 0.000429 s⁻¹ and the t½ was found to be 27 min. Moreover, in test [6], the “RBD.mmh Bound at pH 7.4 (RU)” value was determined as 31.9 RU and the koff was found to be 0.000231 s⁻¹.

B6: mAb15164 (antibody, V domains shown)
VH: EVQLVESGGGLVQPGGSLRLSCAASGFAVSSNYMTWVRQAPGKGLEWVATIYSGDSTYYADSVKGRFTISRHNSKNTLSLQMNSLRADDTAIYYCARLSGVLSGTYNGAFDIWGQGTMVTVSS
VL: QSALTQPASVSGSPGQSITISCTGTSSDFGNYNIVSWYQQHPGQAPKVMIYEGNKRPSGVSNRFSGSKSGHTASLTISGLQAEDEADYYCSSYAGSSTWVFGGGTKLTVLG
As to B6, the IC50 in test [1] came to 245 pM. In test [2], the koff turned out to be 0.0021 s⁻¹, the “t½ at pH 6.0” value turned out to be 5.5 min and the “t½ at pH 7.4” value was found to be 5.1 min. The “t½ Ratio of pH 7.4 to pH 6.0” value in test [3] is 0.9.

B7: mAb15166 (antibody, V domains shown)
VH: EVQLVESGGGLVQPGGSLRLSCAASGFTVTSNYMSWVRQAPGKGLEWVSAIYSGESTYYADSVKGRFTISRDSSKNTLYLQMNSLRVEDTAVYYCASIHDYSNYVGGFDPWGQGTLVTVSS
VL: QSALTQPASVSGSPGQSITISCTGPSSDFGSYNLVSWYQQHPGKAPKLMIYEGTKRPSGVSNRFSGSKSGNTASLTISGLQAEDEADYYCSSYAGSSTWVFGGGTKLTVLG
In test [1], B7 gave a half-inhibitory concentration (IC50) of 475 pM. In test [2], the koff is 0.0301 s⁻¹, the “t½ at pH 6.0” value worked out at 0.4 min and the “t½ at pH 7.4” value stood at 0.4 min. In addition, the “t½ Ratio of pH 7.4 to pH 6.0” value in test [3] was found to be 1.

B8: mAb15165 (antibody, V domains shown)
VH: EVQLVESGGGLVQPGGSLRLSCAASGFTVSSNYMSWVRQAPGKGLEWVSAIYSGDSTYYADSVKGRFTISKDNSKNTLYLQMNSLRGEDTAVYYCARLGGALQAYDGAFDYWGQGTLATVSS
VL: QSALTQPASVSGSPGQSITISCTGTSSDFGSYNLVSWYQQHPGKAPKLMIYEGNKRPSGVSIRFSGSKSGNTASLTISGLQAEDEADYYCSSYAGSSTWVFGGGTKLTVLG
B8: the half-maximal inhibitory concentration (IC50) in test [1] turned out to be 189 pM. Also, in test [2], the koff turned out to be 0.00128 s⁻¹, the “t½ at pH 6.0” value came out at 9.1 min and the “t½ at pH 7.4” value amounted to 7.1 min. In test [3], the “t½ Ratio of pH 7.4 to pH 6.0” value came to 0.8.

B9: mAb15150 (antibody, V domains shown)
VH: EVQLVETGGGLIQPGGSLRLSCAAPGFIVSSNYMSWVRQAPGKGLEWVSLLYPGGSTYYADSVKGRFTISRDNSKNTLYLQMNSLRADDTAVYYCARVLPIVEDHFDYWGQGTLVTVSS
VL: DIQLTQSPSFLSASVGDRVTITCRASQGMSSYLAWYQKKPGKAPKLLIYGATILQSGVPSRFSGSGSGTEFTLTISSLQPEDFATYYCQQLNSDPLYMYTFGQGTKLEIKR
On to B9, for which, in test [1], the IC50 came to 254 pM. In test [2], the dissociation rate constant (koff) turned out to be 3.81e-05 s⁻¹, the “t½ at pH 6.0” value came to 304 min and the “t½ at pH 7.4” value came to 103 min. Also, the “t½ Ratio of pH 7.4 to pH 6.0” value in test [3] came to 0.3.

B10: mAb15157 (antibody, V domains shown)
VH: EVQLVESGGALVQPGGSLRLSCAASGFPFTIYAMTWVRQAPGKGLEWVSVITGSGDSTYYADSVKGRFTISRDNSKNTLYLQMNSLRAEDTAVYYCVKTGEGFFYYYYGMDVWGQGTTVTVSS
VL: QSVLTQPPSVSAAPGQKVTISCSGSSSNIGNSYISWYQQLPGTAPKLLIYVNNKRPSGIPDRFSGSKSGTSATLGITGLQTGDEADYYCGTWDSSLSAGVFGSGTKVTVLG
In the case of B10, the “t½ Ratio of pH 7.4 to pH 5.0” value in test [4] worked out at 1.7. Further, in test [5], the “RBD.mmh Bound at pH 7.4 (RU)” value came to 108 RU, the dissociation rate constant (koff) worked out at 0.00702 s⁻¹ and the t½ stood at 1.6 min. For the same molecule, in test [6], the “RBD.mmh Bound at pH 7.4 (RU)” value worked out at 106 RU and the koff amounted to 0.00405 s⁻¹.

B11: mAb15156 (antibody, V domains shown)
VH: QLQLQESGPGLVKSSETLSLTCTVSASITGSTYYWGWIRQPPGKGLEWIGSIYYSGTTYYKASLKSRVTISVDTSKNQFSLKLTSVTVADTAVYYCVSHLLGNYHKYGMDVWGQGTTVTVSS
VL: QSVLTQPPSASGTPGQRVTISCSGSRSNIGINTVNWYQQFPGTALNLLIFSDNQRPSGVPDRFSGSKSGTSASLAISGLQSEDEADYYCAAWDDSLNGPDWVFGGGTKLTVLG
For B11, in test [4], the “t½ Ratio of pH 7.4 to pH 5.0” value stood at 2.3. Moreover, in test [5], the “RBD.mmh Bound at pH 7.4 (RU)” value was found to be 104 RU, the off-rate (koff) amounted to 0.0158 s⁻¹ and the t½ came out at 0.7 min. Further, in test [6], the “RBD.mmh Bound at pH 7.4 (RU)” value turned out to be 92.6 RU and the koff turned out to be 0.00673 s⁻¹.

B12: mAb15160 (antibody, V domains shown)
VH: EVQLVESGGGLVQPGGSLRLSCSASGFTFSRYAMYWVRQAPGKGLEYVSAISSDGGSTYDADSVKGRFTISRANSKNTLYLQMSSLRAEDTAVYYCVKGLRELLYYYYGMDVWGQGTTVTVSS
VL: DIQMTQSPSSLSASVGDRVTITCRAGQSISSFLNWYQQKPGKAPKLLIYAASSLQSGVPSRFSGSGSGTDFTLTISSLQPEDFATYYCQQSYITPFTFGPGTKVDIKR
For the molecule B12, the “t½ Ratio of pH 7.4 to pH 5.0” value in test [4] was determined as 1. For the same molecule, in test [5], the “RBD.mmh Bound at pH 7.4 (RU)” value came out at 61.3 RU, the off-rate constant (koff) worked out at 0.00228 s⁻¹ and the t½ was found to be 5.1 min. Further, in test [6], the “RBD.mmh Bound at pH 7.4 (RU)” value stood at 58.2 RU and the koff worked out at 0.00218 s⁻¹.

B13: mAb15161 (antibody, V domains shown)
VH: EVQLVESGGGLVQPGGSLRLSCAASGFTFSSYEMNWVRQAPGKGLEWVSYISSSGSILYYADSVKGRFTASRDNAKNSLYLQMNSLRAEDTGVYYCARREYQLLRPFEFWGQGTLVTVSS
VL: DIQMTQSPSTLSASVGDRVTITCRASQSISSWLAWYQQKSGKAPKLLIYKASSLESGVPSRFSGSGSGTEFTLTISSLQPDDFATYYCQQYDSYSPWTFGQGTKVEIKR
B13: the “t½ Ratio of pH 7.4 to pH 5.0” value in test [4] turned out to be 0.9. Further, in test [5], the “RBD.mmh Bound at pH 7.4 (RU)” value was determined as 51.4 RU, the koff was 0.00098 s⁻¹ and the t½ came out at 11.8 min. Moreover, in test [6], the “RBD.mmh Bound at pH 7.4 (RU)” value was found to be 39.8 RU and the koff was found to be 0.00113 s⁻¹.

B14: mAb15151 (antibody, V domains shown)
VH: QVQLVESGGGVVQPGRSLRLSCAASGFVFNSYGMHWVRQAPGKGLEWVAVLWYEGSKNYYADSVKGRFTISRDNSKNTLYLQMNSLRAEDTAVYYCARHGSGSFFGYYLDYWGQGTLVTVSS
VL: DIQMTQSPSSLSASVGDRVTITCRASHNINDFLNWYQQKPGKAPRLLIYAASSLQSGVPSRFSGSGSGTDFTLTISSLQPEDFATYYCQESYTTPPTFGQGTKLEIKR
B14: the half-inhibitory concentration (IC50) in test [1] is 641 pM. In test [2], the koff is 0.00454 s⁻¹, the “t½ at pH 6.0” value was found to be 2.5 min and the “t½ at pH 7.4” value amounted to 1.7 min. Also, the “t½ Ratio of pH 7.4 to pH 6.0” value in test [3] worked out at 0.7.
